Reference: patent US20230233607A1

Target: CV1, an engineered high-affinity membrane receptor for CD47
Test: flow cytometry; HEK 293T cells with light-induced CV1 incubated with biotinylated CD47, detected by streptavidin-PE

- percent of engineered cells stained with CD47: > 80%
Substance: Biotinylated CD47 protein (from UniProt Q08722 19-135) (ligand)
